Measurements published in publication PMC4417118 (Genome Research, 2015).

Biological target: the molecule itself
Assay: native gel or EMSA

Protein | stoichiometry N
His-CRMP1 (collapsin response mediator protein 1, wild type) (natural protein) not shown | 4
His-CRMP1-D408V (natural protein) not shown | 4
